{
  "source": "paper PMC2778132",
  "target": "endogenous αIIbβ3 integrin receptor of activated platelets (human (endogenous in platelets)) (UniProt P08514)",
  "data": [
    {"binder": "RGDS", "note": "[RGDS peptide]", "values": [
      {"measurement": "reduction of adhesion of TRAP-activated platelets to fibrinogen-coated wells (1 µM peptide, compared to N-PTB^D66E)", "value": 7, "unit": "%"}
    ]}
  ]
}
